In assay [1] the target is T1, TIMP-2 region 145NHRYQMGCECKI156 (human).
T1 construct: This exact peptide was not itself the assayed species
T1 peptide: NHRYQMGCECKI
The assay is described as follows: Pepscan ELISA on linear 15-mer TIMP-2 peptides. The method, then: (§1) Synthetic linear peptides were synthesized and screened as described by Slootstra et al. (Slootstra et al., 1996, Mol. Diversity 1, 87-96) and Timmerman et al. (Timmerman et al., 2007, J, Mol Recognit 20, 283-299). The binding of antibody to each peptide was tested in a PEPSCAN-based enzyme-linked immuno assay (ELISA). The covalently linked peptides were incubated with sample (for example 1 μg/mL antibody diluted in a PBS solution containing 5% horse serum (vol/vol) and 4% ovalbumin (weight/vol)) and 1% Tween 80 at 4° C. overnight. After washing, the peptides were incubated with Goat-anti-Rabbit HRP (Jackson Immunoresearch) for 1 hour at 25° C., and subsequently, after washing the peroxidase substrate 2,2′-azino-di-3-ethylbenzthiazoline sulfonate (ABTS) and […] 3% H₂O₂ were added. After 1 hour the color development was measured.
A general note: ELISA stands for enzyme-linked immunosorbent assay.

For assay [2], the target named is T2, TIMP-2 region 132PWDTLSTTQKK142 (human).
T2 construct: This exact peptide was not itself the assayed species
T2 peptide: PWDTLSTTQKK
Briefly: Pepscan ELISA on linear 15-mer TIMP-2 peptides. Here is the method: as §1

B1: antibody 40H2-40K3 (antibody, V domains shown)
VH: QSLEESGGDLVKPEGSLTLTCTASGFTISSNYYMCWVRQAPGKGLEWVACILGGSGTYTYYATWAKGRFTISKTSSTTVTLQMPSLTAADTATYFCARQAPADTYLYGGYGPFNLWGQGTLVTVSS
VL: DIVMTQTPSSVEAAVGGTVTIKCQASESISGWLAWYQQKPGQPPKLLIYRASTLESGVPSRFKGSGSGTEFTLTISDLECADAATYYCQCSYGINGNSEHGNPFGGGTEVVVKR
Regarding B1, the binding result in assay [1] is on record as “binds”.

B2: antibody 6E2.1 (antibody, V domains shown)
VH: QVQLQQSGPQLVRPGASVKISCKASGYSFTSYWMHWVKQRPGQGLEWIGVIDPSDSETRLNQKFKDKATLTVDKSSSTAYMQLNSPTSEDSAVYYCARRDYGSRYDAMDYWGQGTSVTVSS
VL: DIQMTQSSSYLSVSLGGRVTITCKASDHINNWLAWYQQKPGNAPRLLISGATSLETGVPSRFSGSGSGKDYTLSITSLQTEDVATYYCQQYWSTPFTFGSGTKLEIK
notes: Both are partial: a leader, the variable domain and only the start of the constant region
B2: the binding result in assay [2] was “binds”.

For the origin of these results see US20200071416A1 (ASTUTE MEDICAL, published 2020).
